# Test results reported in patent publication US7811578B2, “Soluble chimeric peptide inhibitors of HIV entry comprising an IZ trimeric coiled-coil peptide and HIV gp41 N-helix coiled-coil peptide” (Whitehead Institute for Biomedical Research, dated 2010).
# B1: IQN17 (designed binder)
# chain: Ac-RMKQIEDKIEEIESKQKKIENEIARIKKLLQLTVWGIKQLQARIL-NH2
# B2: N17 (peptide)
# peptide: Ac-LLQLTVWGIKQLQARIL-NH2
# B3: IQ22N17 (designed binder)
# chain: Ac-KIEEIESKQKKIENEIARIKKLLQLTVWGIKQLQARIL-NH2
# B4: IQ15N17 (designed binder)
# chain: Ac-KQKKIENEIARIKKLLQLTVWGIKQLQARIL-NH2
# B5: II22N17 (designed binder)
# chain: Ac-KIEEIESKIKKIENEIARIKKLLQLTVWGIKQLQARIL-NH2
# B6: II15N17 (designed binder)
# chain: Ac-KIKKIENEIARIKKLLQLTVWGIKQLQARIL-NH2
# B7: IQN23 version 2 (designed binder)
# chain: Ac-RMKQIEDKIEEIESKQKKIENEIARIKKLIEAQQHLLQLTVWGIKQLQARIL-NH2
# B8: IZN17 (designed binder)
# chain: Ac-IKKEIEAIKKEQEAIKKKIEAIEKLLQLTVWGIKQLQARIL-NH2
# Legend:
# [1] = target: gp160 (precursor protein to gp120/gp41) on CHO cells (HIV, strain not stated)
# [2] = target: HIV gp41 on HIV modified to contain a luciferase reporter gene (HIV, strain not stated)
# [3] = target: HIV-1 HXB2 gp41 (from the HXB2 gp160 gene), on single-round luciferase virus (HIV-1 (HXB2)) (UniProt P04578)
# [4] = target: HIV-1 HXB2 gp41 (from the HXB2 gp160 gene), on single-round luciferase virus (HIV-1 (HXB2), UniProt P04578); test: cell-based or functional assay
Molecule,"IC50 (nm), viral infectivity (HIV luciferase assay) [4]",also measured
IQN17 (designed binder),–,"IC50, inhibition of syncytia formation (cell/cell fusion, β-galactosidase) [1]: 20 to 80 nM; IC50, inhibition of luciferase activity (viral fusion experiment) [2]: 250 nM"
IQN17 (G572D) (designed binder),–,"IC50 (nm), viral infectivity (HIV luciferase assay) [3]: 20000 nM"
GCN4-pIQI (peptide),–,inhibition of luciferase activity (viral fusion experiment) [2]: > 10 µM
B1,~180 nM,–
B2,~10000 nM,–
B3,~1000 nM,–
B4,~10000 nM,–
B5,~170 nM,–
B6,~3000 nM,–
B7,~30 nM,–
B8,5.6 nM,–
